Reference: patent US20100166722A1

Key:
[1] = target: cognate NY-ESO peptide-MHC presented on peptide-pulsed APCs; experiment: cell-based or functional assay
[2] = target: biotinylated cognate NY-ESO peptide-HLA-A*0201 complex; experiment: SPR (Biacore 3000), soluble TCR over immobilised biotinylated pMHC

| IFN-γ release ELISA, CD4+ T cells; peptide pulsing level needed for a significant response [1] [nM] | Half-live (T½) [2] [s] | Substance |
| --- | --- | --- |
| > 10 | – | full-length wild-type 1G4 NY-ESO TCR expressed on transfected T cells |
| – | 2.2 | soluble disulfide-linked wild-type 1G4 NY-ESO TCR |
